Experimental findings from PMC8556268 (Communications Biology, 2021) are described below.

What all share (details): both partners purified
Assay [1] has as its target T1, SARS-CoV-2 spike protein receptor-binding domain (RBD) (SARS-CoV-2, strain  …, UniProt P0DTC2).
T1 construct: also called SARS-CoV-2 RBD; SARS RBD; source: provided by Roland Strong, Fred Hutchinson Cancer Research Center
Put plainly: ELISA. (In general: An ELISA detects its analyte on a solid surface through an enzyme-linked reagent.)

Assay [2] concerns the target T2, SARS-CoV-2 spike protein receptor-binding domain (RBD), coated on ELISA plates (SARS-CoV-2, strain  …, UniProt P0DTC2).
T2 construct: also called SARS-CoV-2 RBD; SARS-CoV2 RBD; source: provided (Roland Strong, Fred Hutchinson Cancer Research Center)
Kind of assay: ELISA.

Assay [3] has as its target enzymatically biotinylated SARS-CoV-2 spike protein receptor-binding domain (RBD) (SARS-CoV-2, strain  …, UniProt P0DTC2).
Assay [4] concerns the target enzymatically biotinylated SARS-CoV-2 RBD, loaded on streptavidin biosensors (SARS-CoV-2, strain  …, UniProt P0DTC2).

Several values for one entry are separate records, joined by “and”; a condition that tells them apart may be missing. Equal values may be shown once.

B1: tcTRP9_(3)-VHH678_(3) (VHH)
VHH: QVQLQESGGGLVQAGGSLRLSCAASGRTFSEYAMGWFRQAPGKEREFVATISWSGGSTYYTRSVKGRFTISRDNAKNTVYLQMNSLKPDDTAVYYCAAAGLGTVVSEWDYDYDYWGQGTQVTVSS
notes: also called tcTRP9x3_VHH6783; construct 678; source: E. coli BL21(DE3)-RIL, purified (Ni-NTA, dialysis into 1x PBS)
On to B1, for which the EC50 in assay [1] is 2.06 nM. That is a single-digit nanomolar value.

B2: tcTRP9_(3)-VHH684_(3) (VHH)
VHH: B1 VHH
notes: also called tcTRP9x3_VHH6843; construct 684; source: E. coli BL21(DE3)-RIL, purified (Ni-NTA, dialysis into 1x PBS)
Take B2: in assay [1], the EC50 amounted to 1.89 nM.

B3: tcTRP9_(3)-VHH680_(3) (VHH)
VHH: B1 VHH
notes: also called tcTRP9x3_VHH6803; construct 680; source: E. coli BL21(DE3)-RIL, purified (Ni-NTA, dialysis into 1x PBS)
B3 had an EC50 in assay [1] of 8.01 nM. Compared with the last molecule, the EC50 is about 4.2-fold higher.

B4: tcTRP9_(3)-VHH3 construct 680 (trimeric tcTRP9_(3) with VHH 72D61R on each subunit) (VHH)
VHH: B1 VHH
notes: also called tcTRP9x3-VHH3; Trimeric VHH 72D61R; source: E. coli, purified (Ni-NTA, dialysis into 1x PBS)
B4 displayed an EC50 in assay [2] of 12 nM.

B5: tcTRP9_(3)-VHH679_(3) (VHH)
VHH: B1 VHH
notes: also called tcTRP9x3_VHH6793; construct 679; source: E. coli BL21(DE3)-RIL, purified (Ni-NTA, dialysis into 1x PBS)
Consider B5, for which the EC50 in assay [1] is 5.52 nM.

B6: tcTRP9x3_VHH685_(3) (VHH)
VHH: B1 VHH
notes: also called construct 685; source: E. coli BL21(DE3)-RIL, purified (Ni-NTA, dialysis into 1x PBS)
In turn, B6 returned an EC50 in assay [1] of 1.88 nM.

B7: tcTRP9_(3)-VHH683_(3) (VHH)
VHH: B1 VHH
notes: also called tcTRP9x3_VHH6833; construct 683; source: E. coli BL21(DE3)-RIL, purified (Ni-NTA, dialysis into 1x PBS)
B7 showed an EC50 in assay [1] of 2.69 nM.

B8: tcTRP9_(3)-VHH681_(3) (VHH)
VHH: B1 VHH
notes: also called tcTRP9x3_VHH6813; construct 681; source: E. coli BL21(DE3)-RIL, purified (Ni-NTA, dialysis into 1x PBS)
On to B8, for which the koff in assay [3] came to 3.98e-05 s⁻¹.

B9: tcTRP9_(3)-VHH681_(3) (trimeric tcTRP9_(3) with VHH 72D61R on each subunit, construct 681) (VHH)
VHH: B1 VHH
notes: also called tcTRP9_(3)-VHH3; tcTRP9x3-VHH3; source: E. coli, purified (Ni-NTA, dialysis into 1x PBS)
Regarding B9, the Kd in assay [4] is roughly 0.43 nM. The EC50 in assay [2] was 0.4 nM and ~0.64 nM.

B10: tcTRP9_(3)-VHH682_(3) (VHH)
VHH: B1 VHH
notes: also called tcTRP9x3_VHH6823; construct 682; source: E. coli BL21(DE3)-RIL, purified (Ni-NTA, dialysis into 1x PBS)
For the molecule B10, in assay [1], the EC50 came out at 4.65 nM.

As a reminder, the EC50 is the concentration needed to bring the measured effect to its halfway point. Read a high EC50 as weaker potency. For orientation: koff means a measure of how fast the partners let go of each other. Low readings indicate a long-lived complex, high ones a short-lived complex. Broadly, the Kd is the constant that tells how readily two partners part at equilibrium.
